From patent EP4782465A1

Key:
[1] = biological target: Human insulin receptor subtype B (human) (UniProt P06213); test: cell-based or functional assay
[2] = biological target: Insulin receptor of C2C12 mouse myoblasts (mouse) (UniProt P15208); test: cell-based or functional assay
Sequence of Insulin receptor of C2C12 mouse myoblasts (mouse) (P15208 28-1372): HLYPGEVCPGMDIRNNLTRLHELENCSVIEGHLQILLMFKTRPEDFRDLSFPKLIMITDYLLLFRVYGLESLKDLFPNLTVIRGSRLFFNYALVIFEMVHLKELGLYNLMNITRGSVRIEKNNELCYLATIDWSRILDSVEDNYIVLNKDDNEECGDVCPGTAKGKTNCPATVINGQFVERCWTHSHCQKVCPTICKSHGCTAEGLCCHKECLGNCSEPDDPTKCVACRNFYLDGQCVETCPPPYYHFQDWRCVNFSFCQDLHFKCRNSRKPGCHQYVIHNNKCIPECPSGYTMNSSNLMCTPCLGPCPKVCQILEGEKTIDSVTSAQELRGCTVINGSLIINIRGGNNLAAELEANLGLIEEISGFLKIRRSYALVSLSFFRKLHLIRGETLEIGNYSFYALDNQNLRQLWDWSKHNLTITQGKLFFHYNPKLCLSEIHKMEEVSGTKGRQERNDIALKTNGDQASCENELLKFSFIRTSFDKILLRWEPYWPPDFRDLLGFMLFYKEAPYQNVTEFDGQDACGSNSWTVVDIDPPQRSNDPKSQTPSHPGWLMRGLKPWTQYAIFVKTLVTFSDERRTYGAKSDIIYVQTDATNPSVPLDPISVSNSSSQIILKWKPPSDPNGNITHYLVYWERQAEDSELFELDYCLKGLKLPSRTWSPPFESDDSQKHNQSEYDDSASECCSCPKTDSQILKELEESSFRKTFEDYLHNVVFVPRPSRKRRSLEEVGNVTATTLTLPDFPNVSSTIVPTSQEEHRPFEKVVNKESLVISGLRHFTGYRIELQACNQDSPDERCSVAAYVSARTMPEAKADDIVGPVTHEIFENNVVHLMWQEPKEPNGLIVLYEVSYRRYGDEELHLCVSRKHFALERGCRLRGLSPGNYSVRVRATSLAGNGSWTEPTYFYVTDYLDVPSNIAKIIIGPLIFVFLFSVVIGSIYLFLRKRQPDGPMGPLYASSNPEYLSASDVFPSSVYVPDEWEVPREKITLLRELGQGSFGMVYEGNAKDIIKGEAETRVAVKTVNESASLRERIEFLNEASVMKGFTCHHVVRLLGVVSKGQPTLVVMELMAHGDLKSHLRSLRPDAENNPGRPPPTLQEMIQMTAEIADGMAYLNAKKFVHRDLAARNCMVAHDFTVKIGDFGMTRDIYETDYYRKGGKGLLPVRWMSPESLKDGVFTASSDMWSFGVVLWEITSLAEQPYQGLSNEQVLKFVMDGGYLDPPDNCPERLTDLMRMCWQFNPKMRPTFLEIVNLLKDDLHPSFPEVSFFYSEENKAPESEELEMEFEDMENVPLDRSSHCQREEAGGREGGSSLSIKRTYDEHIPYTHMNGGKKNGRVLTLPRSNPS

- Human insulin receptor subtype B activity (EC50) [1]: 0.116 µM
- AKT phosphorylation activity (EC50) [2]: 0.194 µM
Substance: LY3209590 (Fc fusion)
